The target of this assay is aCD19A (anti-CD19-A192) Nanoworm. Put plainly: SEC-MALS. (Size exclusion chromatography separates by hydrodynamic size, large species first.)

B1: aCD19A (anti-CD19-A192) Nanoworm (scFv, V domains shown)
VH: QVQLQQSGAELVRPGSSVKISCKASGYAFSSYWMNWVKQRPGQGLEWIGQIWPGDGDTNYNGKFKGKATLTADESSSTAYMQLSSLASEDSAVYFCARRETTTVGRYYYAMDYWGQGTTVTVSS
VL: DIQLTQSPASLAVSLGQRATISCKASQSVDYDGDSYLNWYQQIPGQPPKLLIYDASNLVSGIPPRFSGSGSGTDFTLNIHPVEKVDAATYHCQQSTEDPWTFGGGTKLEIK
By stoichiometry N is commonly meant the number of molecules, sites or subunits per partner or assembly. Regarding B1, the stoichiometry N was found to be 186.

The values are drawn from PMC8386582.
